B1: LCN2_apta23 (ssDNA)
DNA: ATACCAGCTTATTCAATTCGTATCAGAATCGCGTGTCACCTTATCTGCCGTATGGGTGAGATAGTAAGTGCAATCT
B2: LCN2_apta12 (ssDNA)
DNA: ATACCAGCTTATTCAATTCAGGGAAAGGTTACGCGACACATTAGTTTTGAGTCCGTTCAGATAGTAAGTGCAATCT
B3: LCN2_apta10 (ssDNA)
DNA: ATACCAGCTTATTCAATTGGCAGTAGGGCGGGGGGGAGCATGGAGCACATTCTTGTCGAGATAGTAAGTGCAATCT
B4: LCN2_apta6 (ssDNA)
DNA: ATACCAGCTTATTCAATTGCACGGTACGCTCTTGAGTGATCCACAATTTCTAACCGCGAGATAGTAAGTGCAATCT
B5: LCN2_apta34 (ssDNA)
DNA: ATACCAGCTTATTCAATTCGGAGCGGTAGTTTGAGGAGGAAACAACCCGGCCTTGGAGAGATAGTAAGTGCAATCT
B6: LCN2_apta13 (ssDNA)
DNA: ATACCAGCTTATTCAATTCGCGGCCTAACTTTGGAAGTTCCTCAGAATACTCAGTTGAGATAGTAAGTGCAATCT
B7: LCN2_apta27 (ssDNA)
DNA: ATACCAGCTTATTCAATTGCGATAATCTTGGTTTTCTTTTCAGTTTCTTTAGGGCGGGAGATAGTAAGTGCAATCT
B8: LCN2_apta31 (ssDNA)
DNA: ATACCAGCTTATTCAATTCCCGATCAGAACATCGGCTCTTATACCCGTTTTGGTCACGAGATAGTAAGTGCAATCT
B9: LCN2_apta30 (ssDNA)
DNA: ATACCAGCTTATTCAATTGCACGGGTAAGAAAACGGGGAACTTGAAAGTAGTGCTGTGAGATAGTAAGTGCAATCT
B10: LCN2_apta19 (ssDNA)
DNA: ATACCAGCTTATTCAATTCGACAAAGGAGCTACGTCTACATAGCGTGGTGAGTGCTTGAGATAGTAAGTGCAATCT
B11: LCN2_apta3 (ssDNA)
DNA: ATACCAGCTTATTCAATTCCCAAGGGCGAGCTGGCGGCTTGTTGCATAAATTCGTGGAGATAGTAAGTGCAATCT
B12: LCN2_apta7 (ssDNA)
DNA: ATACCAGCTTATTCAATTCCGCGTCACCTCACTGCTCCCACTGCGTTGCGTCTCTAAGATAGTAAGTGCAATCT
B13: LCN2_apta32 (ssDNA)
DNA: ATACCAGCTTATTCAATTCGAGTCATTGTTTTGCAAAGGATTATGCGTTGTAACGGAGAGATAGTAAGTGCAATCT
B14: LCN2_apta20 (ssDNA)
DNA: ATACCAGCTTATTCAATTCCACAAACGGTACTGGACAGTTCTTATATGCTTACATTTGAGATAGTAAGTGCAATCT
B15: LCN2_apta16 (ssDNA)
DNA: ATACCAGCTTATTCAATTCCGCGTCACCTCACTGCTCCCACCTGCGTTGCGTCTCTAAGATAGTAAGTGCAATCT
B16: LCN2_apta33 (ssDNA)
DNA: ATACCAGCTTATTCAATTCACGACGATAGTGCAGTGGATACATTCGGCCCTTACCATGAGATAGTAAGTGCAATCT
B17: LCN2_apta4 (ssDNA)
DNA: ATACCAGCTTATTCAATTCGGAGGGCGGAAGCAAAGCGTAACAGAAAGCCAACACGCGAGATAGTAAGTGCAATCT
B18: LCN2_apta8 (ssDNA)
DNA: ATACCAGCTTATTCAATTCGACAATAGATCAGAACGCTCGAGTTCGCGAGGTGGGGGAGATAGTAAGTGCAATCT
B19: LCN2_apta17 (ssDNA)
DNA: ATACCAGCTTATTCAATTCACGTGCGACAGGGGGATCTGGCTTTATCCCAGCGTGTTAAGATAGTAAGTGCAATCT
B20: LCN2_apta22 (ssDNA)
DNA: ATACCAGCTTATTCAATTCCAACGAGGATGCCAAAGAAAGGTGAGGTGGTCCTAAGGGAGATAGTAAGTGCAATCT
B21: LCN2_apta26 (ssDNA)
DNA: ATACCAGCTTATTCAATTCCAACACCTTGGGTATCCTGTTATATTCACTTGTTGAGTAAGATAGTAAGTGCAATCT
B22: LCN2_apta21 (ssDNA)
DNA: ATACCAGCTTATTCAATTCCGGATTTTCGCACGGCTAGCGGGGAACCACTGTCTGGGAGATAGTAAGTGCAATCT
B23: LCN2_apta15 (ssDNA)
DNA: ATACCAGCTTATTCAATTCCACACCAGTCCTTGTTCGTAGATCACGGTTTCTTCAGGAAGATAGTAAGTGCAATCT
B24: LCN2_apta2 (ssDNA)
DNA: ATACCAGCTTATTCAATTCCACAGTAGGTGAGGTTCACTGAGTTATCCATTGTTGGCAAGATAGTAAGTGCAATCT
B25: LCN2_apta29 (ssDNA)
DNA: ATACCAGCTTATTCAATTCCGTGACAAGTTGCAGGGGCTGTGCGGTTCTTTTTTTTTGAGATAGTAAGTGCAATCT
B26: LCN2_apta18 (ssDNA)
DNA: ATACCAGCTTATTCAATTCCAGCAAGTAAAGGTTATTTACTAGTTAGGGGCTTCTTGAGATAGTAAGTGCAATCT
B27: LCN2_apta25 (ssDNA)
DNA: ATACCAGCTTATTCAATTGCCACTCGACATGCTTGCCTGTACACTAAAACACTATTCAGATAGTAAGTGCAATCT
B28: LCN2_apta1 (ssDNA)
DNA: ATACCAGCTTATTCAATTGCCACGACTTGGGGAATCCTAAGGGCTGTGAACGCCGTGGAGATAGTAAGTGCAATCT
B29: LCN2_apta11 (ssDNA)
DNA: ATACCAGCTTATTCAATTGCGATCGACGCCTGGAGAAGTTCCAGCATTAGCGTAAGTGAGATAGTAAGTGCAATCT
B30: LCN2_apta5 (ssDNA)
DNA: ATACCAGCTTATTCAATTCCCAGCAATCCATTACTTCGTTAGTTCTAATTACCAACCAGATAGTAAGTGCAATCT
B31: LCN2_apta24 (ssDNA)
DNA: ATACCAGCTTATTCAATTGGGGAACTGAATTATCAGAGATTTTATTCACCTCGTTGGGAGATAGTAAGTGCAATCT

biological target: Lipocalin-2 (LCN2, NGAL) (human, UniProt P80188 21-198); assay: SPR (BIAcore 3000, CM5 chip); SPR BIAcore 3000, 24 C, LCN2 amine-coupled to CM5 chip; running buffer for the Kd assay not stated (HBS-EP used for SA-chip activation); details: protein: recombinant; tags: C-terminal polyhistidine
Sequence (P80188 21-198): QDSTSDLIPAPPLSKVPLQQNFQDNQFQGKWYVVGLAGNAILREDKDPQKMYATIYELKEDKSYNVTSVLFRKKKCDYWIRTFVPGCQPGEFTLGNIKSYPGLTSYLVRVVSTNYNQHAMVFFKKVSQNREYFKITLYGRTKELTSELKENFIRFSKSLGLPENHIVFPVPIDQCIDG

Row | Binder | Kd | binding result
1 | B1 | 158 nM | 
2 | B2 | 84.5 nM | 
3 | B3 | 99.9 nM | 
4 | B4 | 0.801 nM | 
5 | B5 | 2870 nM | 
6 | B6 |  | no binding
7 | B7 | 13.9 nM | 
8 | B8 | 1780 nM | 
9 | B9 | 86.4 nM | 
10 | B10 | 66.6 nM | 
11 | B11 | 0.00719 nM | 
12 | B12 | 1.1 nM | 
13 | B13 |  | no binding
14 | B14 | 10.9 nM | 
15 | B15 | 220 nM | 
16 | B16 |  | no binding

Row | Binder | Kd | binding result
17 | B17 | 0.0609 nM | 
18 | B18 | 3.42 nM | 
19 | B19 |  | no binding
20 | B20 | 8440 nM | 
21 | B21 | 118 nM | 
22 | B22 | 872 nM | 
23 | B23 |  | no binding
24 | B24 | 0.00224 nM | 
25 | B25 | 565 nM | 
26 | B26 | 3380 nM | 
27 | B27 |  | no binding
28 | B28 | 0.000647 nM | 
29 | B29 |  | no binding
30 | B30 | 0.0816 nM | 
31 | B31 |  | no binding

Source: paper PMC4454046, “Aptamer-based Sandwich Assay and its Clinical Outlooks for Detecting Lipocalin-2 in Hepatocellular Carcinoma (HCC)”
